Data: PMC11381523 (Nature Communications, 2024)

Target: Rpb2 subunit of Komagataella phaffii RNA polymerase II (TAP-tagged) (Komagataella phaffii, UniProt F2QTX9 1-1227)
Assay: cryo-EM structure

B1: Komagataella phaffii Rai1 (E213A/D215A), kpRai1(2A) (enzyme)
chain: MSKEKILPLAARSKKAMLRQPKQVAYFSRDLNYKTHPDRSNLSYYYLPDGDIDNSIDLSVGSKHFLLGDSVELSKLDPILLALKEIEKESGAKTKDRIITWRGIMRKLLTLPYDSEEDFVLDVVSFDGQLFIQFNVPYLKSKDVQKQGDTEFHKKLQFSGYKFEKMATLPKPWPECTRKEIDSRAKSKCNNIEQYGAIVRTGISRIKILIGGAVACTADYYDENDPLSRYIELKTTRTINQYKDMIAFEKKLFRTWAQCFLLGIPKIIYGFRDDNCILRTVEEFSTNDIPLMVKNNPLNEQPKKENCYMSSINFYGAVVEWLNESVKDDQVWKLSYAKRNRQYLVLKEVTDENEKQQIVDSAIPAWFKEWRSELRNSEGNI
binding result: binds
